US20150232562A1 (Ablynx, published 2015)

B1: 11A121/1-126 (VHH)
VHH: EVQLVESGGGLVQAGGSLRLSCVVSEGTFSSYSMGWFRQAPGKDREFVSAITWNGTRTYYRDSVKGRFTISRDNAKNTVQLQMNSLKPEDTAVYYCAVSQPLNYYTYYDARRYDYWGQGTQVTVSS
notes: C-term myc-His6 tag
B2: 13G72/1-118 (VHH)
VHH: EVQLVESGGGLVQAGGSLRLSCAASGRAFSSYAMGWFRQAPGKERDFVAAITSSGSTNYADSVKGRFTISRDNAKNTVYLQMNSLKPEDTAVYYCAAKYYSYYAYDYWGQGTQVTVSS
notes: C-term myc-His6 tag
B3: 13G121/1-127 (VHH)
VHH: EVQLVESGGGLVRAGTSLRLSCADSARTFSSAAMGWFRQAPGKEREFVSAISPIGSSKYYADSVKGRFTISRDNAKNTVYLQMDSLKPEDTAVYYCAASSYGSTYYSQGRAYYYDYWGQGTQVTVSS
notes: C-term myc-His6 tag
B4: 13E81/1-124 (VHH)
VHH: EVQLVESGGGLVQAGGSLRLSCAASGGTFSVYHMAWFRQAPGKEREFVAAIRSSGGLFYALSVSGRFTISRDNAKDTMYLQMNVLKPEDTAVYYCAASPVYYIDYSSQYKYGYWGQGTQVTVSS
notes: C-term myc-His6 tag
B5: 22B1212/1-122 (VHH)
VHH: EVQLVESGGGLVQPGGSLRLSCAASGFTFSSYAMSWVRQAPGKGLEWVSAINSGGGSTSYADSVKGRFTISRDNAKNTLYLQMNSLKPEDTAVYYCAKYLSFYSDYEVYDYWGQGTQVTVSS
notes: C-term myc-His6 tag
B6: 13E51/1-128 (VHH)
VHH: EVQLVESGGGLVQAGGSLRLSCAASRHTFSGYAMGWFRQAPGKEREFVAAIRWSGGITYYADSVKGRFTISSDNAKNTVYLQMNSLKPEDTALYYCARSVTYYSGSHAYTQEGGYARWGQGTQVTVSS
notes: C-term myc-His6 tag
B7: 13G93/1-123 (VHH)
VHH: EVQLVESGGGLAQAGDSLRLSCVDSGSSFSAYAMGWFRQAPGKEREFVAAVSWDGRNTYYADSVKGRFTISRDNAKNTLYLQTTSLRPEDTGVYYCAEDKQSGVSVNPKYAYWGQGTQVTVSS
notes: C-term myc-His6 tag
B8: 12C52/1-118 (VHH)
VHH: EVQLVESGGGLVQAGGSLRLSCAVSGGTFESDTMAWFRQAPGKEREFVARVSWIRTTYYSDSVKGRFTISKDNAKNTVYLQMNSLKPEDTAVYYCAAQTLGRSLYDYWGQGTQVTVSS
notes: C-term myc-His6 tag
B9: 13F121/1-119 (VHH)
VHH: EVQLVESGGGLVQAGGSLRLSCAASGRSFNDYTMGWFRQTPGKEREFVARVWWNGGSAYYADSVKGRFTISIDNAKNTVYLQMNNLTPEDTAVYYCAALYRGRSVYDDWGQGTQVTVSS
notes: C-term myc-His6 tag
B10: 12D121/1-126 (VHH)
VHH: EVQLVESGGGLVQTGGSLRLSCAASGRAFSTYGMGWFRQAPGKAREFVAAISRSGTGTYYAGSMKGRFTISRDDAKNTVYLQMNSLKPEDTAVYYCAARQPYASGSHYSSTQYTYWGQGTQVTVSS
notes: C-term myc-His6 tag
B11: 11A91/1-124 (VHH)
VHH: EAQLVESGGGLVQAGGSLRLSCTASGRTYSTTMGWFRQAPGKEREFVAAIRWSGGSAFYADSVKGRFTISRDNAKNTVYLQMTSLMPEDTAVYYCADTPVYYQRYYDQNAYDYWGQGTQVTVSS
notes: C-term myc-His6 tag
B12: 11B31/1-124 (VHH)
VHH: EVQLVESGGGLVQAGGSLRLSCAASGGAFGVYHMGWFRQAPGKEREFVAAIRSGGTTLYEDSVKGRFTISRDNAKNTVYLRMNSLKPEDTAVYYCATQIYYRTNYYSQNAYDYWGQGTQVTVSS
notes: C-term myc-His6 tag
B13: 21A21/1-124 (VHH)
VHH: EVQLVESGGGLVQAGGSLRLSCAASGGTFGVYHMGWFRQAPGTEREFVAVIRSGGTTLYEDSVKGRFTISRDNAKNTVYLRMNSLKPEDTAVYYCAAQIYYRTNYSSQSNYDYWGQGTQVTVSS
notes: C-term myc-His6 tag
B14: 14H51/1-124 (VHH)
VHH: EVQLVESGGGLVQAGGSLRLSCAASGGTFGVYTMAWFRQAPGKEREFVAAIRSGATTLYEDSVKGRFTISRDDAKNTVYLRMNSLKPEDTAVYYCAAQIYYRTNYYSQNEYDYWGQGTQVTVSS
notes: C-term myc-His6 tag
B15: 21A53/1-124 (VHH)
VHH: EVQLVESGGGLVQAGGSLELSCAASGGAFGVYHMGWFRQAPGKEREFVAAIRSGGTTLYEDSVKGRVTISRDDAKNTVYLRMNSLKPEDTAVYYCAAQIYYRTNYYSQNVYDYWGQGTQVTVSS
notes: C-term myc-His6 tag
B16: 13G81/1-124 (VHH)
VHH: EVQLVESGGGLVQAGGSLRLSCAASGGTFGVYHMGWFRQAPGKEREFVAVIRSGGTTLYADSVKGRFTISRDDAKNTVYLQMNSLKPEDTAVYLCAAQIYYRTNYYSQNNYDYWGQGTQVTVSS
notes: C-term myc-His6 tag
B17: 22B41/1-124 (VHH)
VHH: EVQLVESGGGLVQPGGSLRLSCTVFGRTFSGDVIGWFRQAPGKEREFVAAISTSGGGTDSADSVKGRFTISKENAKNTVYLQMTILKPEDTAVYYCASSPYGPLYRSTHYYDYWGQGTQVTVSS
notes: C-term myc-His6 tag
B18: 11A13/1-125 (VHH)
VHH: EVQLVESGGGLVQAGDSLRLSCVASGGTFGSYAMGWFRQAPGKEREFVATIDWSGDTAFYADSVKGRFTISRDIANDVVYLQMNSLEPEDTAVYYCARNRQSGVASENLRLYTYWGQGTQVTVSS
notes: C-term myc-His6 tag
B19: 21A61/1-125 (VHH)
VHH: EVQLVESGGGLVQAGDSLRLSCVASGDSFNTYTMGWFRQAPGKEREFVAAIRWSGGTTFYGDSVKGRFTISRDYAKNTWYLQMNTLKPEDTAAYYCAAVATYSRNVGSVRNYDYWGQGTQVTVSS
notes: C-term myc-His6 tag
B20: 12C61/1-126 (VHH)
VHH: EVQLVESGGGLVQAGGSLRLSCAASGRTFSSNAMAWFRQAPGNERELVSAIGWSGASTYYIDSVEGRFTISRDNAKNTVYLQMNSLKPEDTAVYYCAASRYSGGVATARRSEYHYWGQGTQVTVSS
notes: C-term myc-His6 tag
B21: 13F41/1-111 (VHH)
VHH: EVQLVESGGGLVQAGGSLRLSCVASGRTLSTTGVGWFRQAPGKERESVATIFVGGTTYYSDSVKGRFTISRDNAKNAVNLQMSNLKPEDTALYYCTIGSYRGQGTQVTVSS
notes: C-term myc-His6 tag
B22: 11A31/1-120 (VHH)
VHH: EVQLVESGGGLVQAGGSLRLSCAASGGTFSSGVMAWFRQSPGEEREFLALITRNGETKKTADSVKGRFTISRDNAKNGVSLQMDSLKAEDTAVYYCASDPTYGSGRWTYWGQGTQVTVSS
notes: C-term myc-His6 tag
B23: 21A111/1-124 (VHH)
VHH: EVQLVESGGGLVQAGGSLKLSCAVSGRTIVPYTMAWFRQAPGKEREFVAVTRSGGTTFYADSAKGRFTIARDDAKNTVYLQMNSLKPEDTAVYYCALATAYRTNYSSRDKYDYWGQGTQVTVSS
notes: C-term myc-His6 tag
B24: 12D71/1-125 (VHH)
VHH: EVQLVESGGGLVQAGGSLGLSCAASGRTVSTMGWFRQAPGKEREFVTAITWSGDSTNFADSVKGRFTISRDSAKDTVYLQMNNLKPEDTAVYYCAATTYYSGSYISTLSTSYNYWGQGTQVTVSS
notes: C-term myc-His6 tag

target: T1, recombinant human ErbB2/Fc chimera (human, UniProt P04626 23-652); test: ELISA, coated ErbB2/Fc
T1 construct: bought from R&D Systems; also called rhErbB2-Fc; rhErb2-Fc; Fc part of the bought chimera not given; not described

**Q.** Does B1 bind?
**A.** Result: binds

**Q.** Does B2 bind?
**A.** Result: binds

**Q.** Does B3 bind?
**A.** Result: binds

**Q.** Does B4 bind?
**A.** Result: binds

**Q.** Does B5 bind?
**A.** Result: binds

**Q.** Does B6 bind?
**A.** Result: binds

**Q.** Does B7 bind?
**A.** Result: binds

**Q.** Does B8 bind?
**A.** Result: binds

**Q.** Does B9 bind?
**A.** Result: binds

**Q.** Does B10 bind?
**A.** Result: binds

**Q.** Does B11 bind?
**A.** Result: binds

**Q.** Does B12 bind?
**A.** Result: binds

**Q.** Does B13 bind?
**A.** Result: binds

**Q.** Does B14 bind?
**A.** Result: binds

**Q.** Does B15 bind?
**A.** Result: binds

**Q.** Does B16 bind?
**A.** Result: binds

**Q.** Does B17 bind?
**A.** Result: binds

**Q.** Does B18 bind?
**A.** Result: binds

**Q.** Does B19 bind?
**A.** Result: binds

**Q.** Does B20 bind?
**A.** Result: binds

**Q.** Does B21 bind?
**A.** Result: binds

**Q.** Does B22 bind?
**A.** Result: binds

**Q.** Does B23 bind?
**A.** Result: binds

**Q.** Does B24 bind?
**A.** Result: binds
